Variants at the floor of the assay were thinned out.
B1: TPR 5TU (parent)
chain: GGAUCUUCUCGAUCUAACAAAAAAGACAAAUCUGCCACAAAGCUUGAGAGCAUCUUCGGAUGCAGAGGCGGCAGCCUUCGGUGGCGCGAUAGCGCCAACGUUCUCAACUAUGACACGCAAAACGCGUGCUCCGUUGAAUGGAGUUUAUCAUG

Variants of: B1
Assay: polymerase ribozyme fitness, log enrichment relative to wild type (log ratio); higher = more active; in vitro selection for triplet polymerase activity
How it was run: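 Mutant libraries for each subunit of a heterodimeric triplet polymerase ribozyme were made by PCR and then transcribed. Each library underwent one round of in vitro selection in triplicate: annealing with a biotinylated primer, the partner subunit and triplets, frozen incubation at −7 °C, gel excision of extended constructs, streptavidin-bead capture and RT-PCR. Input and output libraries were Illumina-sequenced, and only genotypes with ≥10 input reads and ≥1 read per output were kept. Fitness is the logarithm, base 2, of genotype enrichment over wild-type enrichment, computed from inverse-variance-weighted replicate averages.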

First: U13C A121U A142C
Second: C14G U15G A30U A91G
The “polymerase ribozyme fitness (log ratio)” value of the first is higher: -2.44 for the first, ≤ -4.2 for the second.

First: U13A C103A
Second: U13A A41G C85A A106U
The “polymerase ribozyme fitness (log ratio)” value of the first is higher: -2.51 for the first, -4.16 for the second.

C14U C76G and U13G A20C C27U U61A C99A cannot be ordered by “polymerase ribozyme fitness (log ratio)” value: ≤ -4.2 for the first, ≤ -4.2 for the second.

C14A A26U U77G G84U A115C A147G U148G and U13G G59U C85U G94U G112A C116A cannot be ordered by “polymerase ribozyme fitness (log ratio)” value: ≤ -4.2 for the first, ≤ -4.2 for the second.

Compared with C14G G34A G128A G141C, C14U A22G A39G G71A C93U G152C is lower in “polymerase ribozyme fitness (log ratio)” value: -3.91 for the first, ≤ -4.2 for the second.

Going from A12U C36U to A12U G84U G100U, the “polymerase ribozyme fitness (log ratio)” value falls from -2.21 to ≤ -4.2.

U13G C14G A30C G80A A137U and C14U A52U C85G G133C A142G cannot be ordered by “polymerase ribozyme fitness (log ratio)” value: ≤ -4.2 for the first, ≤ -4.2 for the second.

C14U C27G C35G A39U U82A G86A A97U and C14G U61A C85U C93A C108U A115U cannot be ordered by “polymerase ribozyme fitness (log ratio)” value: ≤ -4.2 for the first, ≤ -4.2 for the second.

Going from U13G C93A G141U to U13A A22C G50A G84A A121U, the “polymerase ribozyme fitness (log ratio)” value rises from -4.01 to -2.93.

C14G C75G U77A C87A A137U G143U and A12U U13G A52U C54A cannot be ordered by “polymerase ribozyme fitness (log ratio)” value: ≤ -4.2 for the first, ≤ -4.2 for the second.

Going from C14U C75G U101G U135A to A12G U56A, the “polymerase ribozyme fitness (log ratio)” value rises from ≤ -4.2 to -0.197.

First: C14A A20U A26C G84A G141A
Second: C14G U53A
The “polymerase ribozyme fitness (log ratio)” value of the first is lower: ≤ -4.2 for the first, -2.66 for the second.

Going from U13A C85U G136U to A12U A21C A52C C85U, the “polymerase ribozyme fitness (log ratio)” value rises from -3.3 to -1.19.

First: C14G A30C C35A G48A C87G U102A
Second: A12U G126A
The “polymerase ribozyme fitness (log ratio)” value of the first is lower: ≤ -4.2 for the first, -0.204 for the second.

A12U C76G C99U C132G and C14G C54A C85G U127A cannot be ordered by “polymerase ribozyme fitness (log ratio)” value: ≤ -4.2 for the first, ≤ -4.2 for the second.

Compared with C14G A89U, C14G U77G G80U C85A is lower in “polymerase ribozyme fitness (log ratio)” value: -2.66 for the first, ≤ -4.2 for the second.

C14G A17C A23C A40C G88A G94U C123G U134G G140A and C14A A20G C79A G94C G141A cannot be ordered by “polymerase ribozyme fitness (log ratio)” value: ≤ -4.2 for the first, ≤ -4.2 for the second.

A12U A41C and A12U C96A are within 0.2 log units of each other in “polymerase ribozyme fitness (log ratio)” value: -0.744 for the first, -0.787 for the second.

Going from C14G G50U C87U C96A to C14A A23U U31C U44A A73G G83C A110G, the “polymerase ribozyme fitness (log ratio)” value falls from -4.12 to ≤ -4.2.

First: C14G U55A
Second: A12U U56A C93U
The “polymerase ribozyme fitness (log ratio)” value of the first is lower: -2.86 for the first, -1.4 for the second.

A12U C57U C85G A115C G133U U139C and U13G A16U G42C G84A cannot be ordered by “polymerase ribozyme fitness (log ratio)” value: ≤ -4.2 for the first, ≤ -4.2 for the second.

First: C14A A49C C69A
Second: C14G U15C C38U C114U
The “polymerase ribozyme fitness (log ratio)” value of the first is lower: ≤ -4.2 for the first, -2.11 for the second.

Compared with U13A A24U G34A G94C G126C, U13A A113U is higher in “polymerase ribozyme fitness (log ratio)” value: -3.18 for the first, -2.5 for the second.

Compared with A12U G58A U144C U146A, U13G C18U C27U C95U is higher in “polymerase ribozyme fitness (log ratio)” value: -3.88 for the first, -3.43 for the second.

Going from U13C G59U C93G A138G to U13G A106C, the “polymerase ribozyme fitness (log ratio)” value rises from ≤ -4.2 to -1.83.

U13C A40G C43U C87U G128C U139A and U13C U44A C87A G126U cannot be ordered by “polymerase ribozyme fitness (log ratio)” value: ≤ -4.2 for the first, ≤ -4.2 for the second.

First: C14G A30G A52C C72A C95G C103G
Second: U13C C96A C99U
The “polymerase ribozyme fitness (log ratio)” value of the first is lower: ≤ -4.2 for the first, -1.75 for the second.

C14G U139C and C14G A19C A22C U61A A91U C105G C108G C114U A120G cannot be ordered by “polymerase ribozyme fitness (log ratio)” value: ≤ -4.2 for the first, ≤ -4.2 for the second.

First: C14G U45A C79U G88A U104G A113U
Second: A12U G84A G88C A119C G140A
The “polymerase ribozyme fitness (log ratio)” value of the first is higher: -4.17 for the first, ≤ -4.2 for the second.

C14G G48U C76U U77G A91C C99G C105G A122G C123G C129G U135G and C14G G84A C85G A106G cannot be ordered by “polymerase ribozyme fitness (log ratio)” value: ≤ -4.2 for the first, ≤ -4.2 for the second.

Going from U13G G59A to C14U A49G U53A C85U C116A, the “polymerase ribozyme fitness (log ratio)” value falls from -1.2 to -3.48.

Compared with C14A A39U A52U C87A C95U C96U G100U C125A, A12U C93G is higher in “polymerase ribozyme fitness (log ratio)” value: ≤ -4.2 for the first, -3.28 for the second.

U13A C32A G42A C75A C76U C87G A106C A138U G141C and C14A C18G A41C G42A G59C G68A C95U cannot be ordered by “polymerase ribozyme fitness (log ratio)” value: ≤ -4.2 for the first, ≤ -4.2 for the second.

First: C14A A37U G84A C125U
Second: U13G G84A
The “polymerase ribozyme fitness (log ratio)” value of the first is lower: -3.95 for the first, -0.636 for the second.

Going from A12U C85U C99G to C14A A41C C85A C132U U145A, the “polymerase ribozyme fitness (log ratio)” value falls from -1.04 to ≤ -4.2.

Going from C14A A115G to C14U A30G G48A C76G A98U U102G, the “polymerase ribozyme fitness (log ratio)” value falls from -2.5 to ≤ -4.2.

Compared with C14G A47C A60U G65A, C14U A37C is higher in “polymerase ribozyme fitness (log ratio)” value: ≤ -4.2 for the first, -1.79 for the second.

Compared with U13A A17U U45C G50A G83C C87U U104G G140A, C14U A17U C38G A60U is higher in “polymerase ribozyme fitness (log ratio)” value: ≤ -4.2 for the first, -2.73 for the second.

Going from C14G C87U to C14G C87G, the “polymerase ribozyme fitness (log ratio)” value falls from -2.29 to ≤ -4.2.

Going from A12U G84U G141C to A12U C32A A41C C103U, the “polymerase ribozyme fitness (log ratio)” value falls from -2.48 to ≤ -4.2.

Compared with A12U G34U G50A A52G G67C C85U C96U G141A U148G, C14U A26G C38U U61G C87A U90A is higher in “polymerase ribozyme fitness (log ratio)” value: ≤ -4.2 for the first, -3.51 for the second.

Compared with U13C A41U U55A C96U C118A, C14A C54U C118U G136U is lower in “polymerase ribozyme fitness (log ratio)” value: -2.88 for the first, -4.12 for the second.
